# Laboratory results: patent publication US10786576B2, “Fatty acids and their use in conjugation to biomolecules” (Novartis AG, dated 2020)
# Positions of bridges follow the written chain, without caps; N, C: chain ends. Non-standard residues stand in square brackets, D forms with d. No end group written: not given here. pGlu = O=C1CC[C@@H](C(=O)O)N1; Nle = CCCC[C@H](N)C(=O)O; I‑37 = not defined here
# B1: pE-R-P-C*-L-S-C*-K-G-P-(D-Nle)-NH(Phenethyl) (disulfide C4-C7) (peptide)
# peptide: ERPCLSCKGPL
# modifications: pE (pyroglutamate) at the N-terminus; D-Nle at position 11; C-terminal NH(Phenethyl); disulfide C4-C7
# B2: transglutaminase enzyme (Ajinomoto) (enzyme)
# chain: DSDDRVTPPAEPLDRMPDPYRPSYGRAETVVNNYIRKWQQVYSHRDGRKQQMTEEQREWLSYGCVGVTWVNSGQYPTNRLAFASFDEDRFKNELKNGRPRSGETRAEFEGRVAKESFDEEKGFQRAREVASVMNRALENAHDESAYLDNLKKELANGNDALRNEDARSPFYSALRNTPSFKERNGGNHDPSRMKAVIYSKHFWSGQDRSSSADKRKYGDPDAFRPAPGTGLVDMSRDRNIPRSPTSPGEGFVNFDYGWFGAQTEADADKTVWTHGNHYHAPNGSLGAMHVYESKFRNWSEGYSDFDRGAYVITFIPKSWNTAPDKVKQGWP
# B3: pE-R-P-R-L-C*-H-K-G-P-Nle-C*-F-OH (Disulfide C6-C12) (peptide)
# peptide: [pGlu]RPRLCHKGP[Nle]CF-OH
# modifications: disulfide 6-12
# SMILES: CCCC[C@@H]1NC(=O)[C@@H]2CCCN2C(=O)CNC(=O)[C@H](CCCCN)NC(=O)[C@H](Cc2c[nH]cn2)NC(=O)[C@@H](NC(=O)[C@H](CC(C)C)NC(=O)[C@H](CCCNC(=N)N)NC(=O)[C@@H]2CCCN2C(=O)[C@H](CCCNC(=N)N)NC(=O)[C@@H]2CCC(=O)N2)CSSC[C@@H](C(=O)N[C@@H](Cc2ccccc2)C(=O)O)NC1=O
# B4: Example 27B: Di-fatty acid conjugate of AgRP(83-132) (AgRP+2 FA) (ligand)
# chain: {I‑37}-SSRRCVRLHESCLGQQVPCCDPCATCYCRFFNAFCYCRK(I‑37)LGTAMNPCSRT
# modifications: disulfide 12-26, 19-37, 5-20, 23-47, 28-35; not fully specified; printed as Ser-Ser-Arg-Arg-Cys-Val-Arg-Leu-H is-Glu-Ser-Cys-Leu-Gly-Gln-Gln-Val-Pro-Cys-Cys-Asp-Pro-Cys-Ala-Thr-Cys-Tyr-Cys-Arg-Phe-Phe-Asn-Ala-Phe-Cys-Tyr-Cys-Arg-Lys-Leu-Gly-Thr-Ala-Met-Asn-Pro-Cys-Ser-Arg-Thr; reading uncertain
# What was measured:
# RXFP1 [1] = biological target: RXFP1
# RXFP1 [2] = biological target: RXFP1; remark: listed apart in the source
# APJ = APJ (human, UniProt P35414); experiment: cell-based or functional assay
# [3] = biological target: hFGF23-variant of Example 28B
# Sequence of MC3R (P41968 whole entry): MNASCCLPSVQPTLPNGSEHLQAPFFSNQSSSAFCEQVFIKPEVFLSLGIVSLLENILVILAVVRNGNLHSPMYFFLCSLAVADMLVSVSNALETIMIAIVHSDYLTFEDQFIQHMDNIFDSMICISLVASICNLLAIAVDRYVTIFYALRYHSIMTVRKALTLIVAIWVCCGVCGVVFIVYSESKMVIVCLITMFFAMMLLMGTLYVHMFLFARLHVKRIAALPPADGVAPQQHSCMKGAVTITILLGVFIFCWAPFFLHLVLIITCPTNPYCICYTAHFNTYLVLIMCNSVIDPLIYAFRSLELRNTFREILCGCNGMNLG
# Sequence of oxytocin receptor (P30559 whole entry): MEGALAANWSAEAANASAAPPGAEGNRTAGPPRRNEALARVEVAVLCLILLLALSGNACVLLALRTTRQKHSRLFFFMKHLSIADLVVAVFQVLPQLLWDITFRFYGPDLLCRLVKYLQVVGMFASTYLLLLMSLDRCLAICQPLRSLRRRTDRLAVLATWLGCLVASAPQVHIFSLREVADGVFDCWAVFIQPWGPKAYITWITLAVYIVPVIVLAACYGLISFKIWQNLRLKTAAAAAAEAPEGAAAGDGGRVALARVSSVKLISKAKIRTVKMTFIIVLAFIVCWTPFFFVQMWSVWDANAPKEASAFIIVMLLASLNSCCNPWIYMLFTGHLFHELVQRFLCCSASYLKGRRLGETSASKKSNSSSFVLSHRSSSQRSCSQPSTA
molecule,measurement,setting,value
Serelaxin (ligand),"cAMP (HTRF), Ec50 (nM), 0% Plasma",RXFP1 [1],8 nM
same,"cAMP (HTRF), Ec50 (nM), 4% Plasma",RXFP1 [1],0.3 nM
same,"cAMP (HTRF), Ec50 (nM), 10% Plasma",RXFP1 [1],0.4 nM
same,"cAMP (HTRF), Ec50 (nM), 600 uL BSA",RXFP1 [1],0.7 nM
same,"cAMP (HTRF), agonist mode, EC50",RXFP1 [2],1.12 nM
Oxytocin (peptide),"Emax (the concentration where the reference agonist elicited a maximal response), calcium flux",oxytocin receptor,1.25 µM
"{I‑37}-SSRRCVRLHESCLGQQVPCCDPCATCYCRFFNAFCYCRKLGTAMNPCSRT (ligand, disulfide 12-26, 19-37, 5-20, 23-47, 28-35; reading uncertain) [Example 27A: Mono fatty acid conjugate of AgRP (AgRP+1FA)]","MC3R EC50 [nM] (cAMP assay, antagonist protocol)",MC3R,7 nM
same,MC4R EC50 [nM] (HTRF cAMP assay),MC4R,18 nM
B1,hAPJ Ca2+ Flux EC50,APJ,3 nM
B2,"TGase labelling of hFGF23-variant with intermediate 25d, LCMS",[3],90%
B3,hAPJ Ca2+ Flux EC50,APJ,1.04 nM
"SSRRCVRLHESCLGQQVPCCDPCATCYCRFFNAFCYCRKLGTAMNPCSRT (ligand, disulfide 12-26, 19-37, 5-20, 23-47, 28-35) [AgRP(83-132)]","MC3R EC50 [nM] (cAMP assay, antagonist protocol)",MC3R,12 nM
B4,"MC3R EC50 [nM] (cAMP assay, antagonist protocol)",MC3R,65 nM
same,MC4R EC50 [nM] (HTRF cAMP assay),MC4R,167 nM
